“Also recorded” adds a separate entry of the source. Bridges are numbered along the chain shown (N, C = ends). Where no end group is shown, it is not given here. [ ]: non-standard residue; d: D form. Lys(N3) = [N-]=[N+]=NCCCC[C@H](N)C(=O)O; Pra = C#CC[C@H](N)C(=O)O
Legend:
[1] = biological target: T1, full-length recombinant MrkA protein (Klebsiella pneumoniae, UniProt P12267); test: Sandwich ELISA of PCC binding to full-length MrkA; conditions: for binding / affinity to full-length MrkA protein (ELISA signal): compared with cy(LLFFF); for affinities to MrkA (likely): ELISA, full-length recombinant MrkA
T1 construct: purchased MyBiosource MBS1248970
Protocol: The screen yielded 26 hits (Table 2) that were sequenced, scaled up, and tested for binding to full-length recombinant MrkA in solution by single-point sandwich Enzyme-linked immunoassays (ELISAs) (FIG. 8). HPraGly is present before X1 in each peptide and Az4 follows X5 in each peptide.
An alanine scan was performed to establish which residues of cy(LLFFF) (SEQ ID NO:5) contribute most to MrkA binding. In this assay, a sandwich ELISA is used to quantify the affinity of several cy(LLFFF) (SEQ ID NO:5) analogues, in which one residue is substituted with an alanine, towards full-length MrkA protein. The ELISA results in FIG. 4 show lower signal for every alanine-substituted cy(LLFFF) (SEQ ID NO:5) analogue compared to unmodified cy(LLFFF) (SEQ ID NO:5), establishing that the native compound has the highest affinity. […] Thus, these two C-terminal phenylalanine residues (FIG. 3A, arrows in inset) play critical roles in MrkA binding, and are targets for modifications to improve binding. Another important detail of these alanine scan results is a strong dependence of MrkA binding on the residue position, independent of residue type. For example, cy(LLAFF) (SEQ ID NO:9) and cy(LLFFA) (SEQ ID NO:11) have very different binding affinities, despite having the same phenylalanine-to-alanine substitution.
In vitro ELISA assays. ELISA assays for MrkA-binding and epitope selectivity were performed on clear NeutrAvidin Coated High Capacity Plates (ThermoFisher, 15507). The buffer used for all washes and to dissolve all compounds was TBST+0.1% BSA (TBS+0.05% Tween 20+0.1% BSA, pH 7.3) and, unless otherwise stated, steps were conducted at room temperature. Each wash involved a brief 20 s agitation, and all conjugation, blocking, and incubation steps were performed with gentle agitation over the entire stated time period. The general procedure for an ELISA assay was: wash 3×200 μL/well, conjugate with 2 μM of biotinylated compound for 2 h at room temperature (100 μL/well), wash 3×200 μL/well, blocked overnight in 5 wt % milk at 4° C., wash […] with wash buffer, incubate with titrated compound (e.g., MrkA or epitope) for 1 h, […], incubate with primary antibody […] for 1 h (100 μL/well), wash 3×200 μL/well, incubate with 1:2,000 anti-rabbit secondary antibody-horseradish peroxidase conjugate (Cell signaling Technologies, 7074S) for 1 h, 3×200 μL/well, develop with the Microwell Peroxidase Substrate System (2-C) (SeraCare, 5120-0047) using 100 μL/well for 1-40 minutes, and quench using 1 M H2SO4 (aq.) at 100 μL/well. For MrkA binding assays, biotinylated PCCs were conjugated to the well surface, recombinant MrkA with an N-terminal 6×His-SUMO-tag (MyBiosource, MBS1248970) was titrated at the desired concentration, and the primary antibody was His-tag antibody, pAb, Rabbit (Genscript, A00174) at a 1:5,000 dilution. For epitope selectivity assays, biotinylated SynEps were conjugated, DNP-conjugated AR-PCCs were titrated at a desired concentration, and the primary antibody was anti-DNP antibody produced in Rabbit (Sigma-Aldrich, D9656) at a 1:8,000 dilution. […] For binding tests in the context of mouse sera, the “titrated compound” described in the steps above was dispersed in a solution containing the desired concentration of mouse serum.

[2] = system: MrkA-expressing K. pneumoniae cells; test: Whole-cell ELISA of biotinylated PCC binding
[3] = system: K. pneumoniae cells (strain BAA 1705); test: Gentamicin protection assay: phagocytosis and opsonophagocytic killing (OPK) by macrophages; type: cell-based, Klebsiella pneumoniae; conditions: AR-PCC 5 μM, 1 h
Protocol: FIGS. 7A and 7B show a gentamicin protection assay that evaluates EPI-driven phagocytosis and opsonophagocytic killing (OPK) of K. pneumoniae cells by murine bone-marrow-derived macrophages. FIG. 7A is a flow diagram depicting the assay used to evaluate EPI-driven opsonophagocytic killing (OPK) of K. pneumoniae cells. Briefly, K. pneumoniae cells (strain BAA 1705) opsonized by EPIs (AR-PCCs) and anti-DNP antibodies were incubated with macrophages for 1 or 24 h. Macrophages were lysed, and the lysate was plated to obtain bacterial colonies that were subsequently counted. FIG. 7B is a plot of colony counts for various samples subjected to the OPK assay. […] All EPIs (AR-PCCs) were used at a 5 μM concentration, measurements were conducted in triplicate, and error bars reflect standard deviations. cy(LLFFA) is SEQ ID NO:11.
It also tested whether DNP-conjugated EPIs could promote the opsonophagocytic killing (OPK) of K. pneumoniae by macrophages. This was tested by using an OPK assay. Briefly, K. pneumoniae cells were treated with EPI and then anti-DNP antibody before being exposed to macrophages for either 6 or 24 hours. During this incubation period, macrophages that recognize K. pneumoniae cells will phagocytose them, and phagocytosed bacteria will remain viable for up to 6 hours, but within 24 hours are rendered inviable by OPK. Thus, macrophages were isolated after 6 and 24 hours of incubation with K. pneumoniae, lysed them, and plated and grew the lysate, which yielded bacterial colonies that reflect the phagocytosis (at 6 hrs) or OPK (at 24 hrs) of bacteria.
Given that cy(LLFFF)-DNP (SEQ ID NO:5) recruits antibodies to K. pneumoniae surfaces, it was expected that K. pneumoniae opsonized in this manner would be more susceptible to phagocytosis by macrophages. AR-PCC-driven phagocytosis and OPK were quantified by a gentamicin protection assay, as depicted in FIG. 7A. For this assay, K. pneumoniae cells (strain BAA 1705) were treated with cy(LLFFF)-DNP (SEQ ID NO:5), opsonized by anti-DNP antibodies, and then incubated with murine bone-marrow-derived macrophages (BMDMs). BMDMs were subsequently exposed to a solution containing gentamicin, to which K. pneumoniae strain BAA 1705 is susceptible, to kill any extracellular bacteria. Phagocytosed bacteria remain viable inside BMDMs for at least 1 h, yet are rendered inviable after 24 h by OPK (FIG. 13). Macrophages harvested at 1 h and 24 h were lysed and plated to generate bacterial colonies, which were enumerated to quantify phagocytosis and OPK.
Opsonophagocytic killing (OPK) assays. Klebsiella pneumoniae BAA1705 was treated with DNP-PCCs followed by incubation with anti-DNP antibody, as described above in the “Cell-Based ELISAs” section. These opsonized bacteria were then used to infect BMDMs at a multiplicity of infection of 50 for 0.5 h at 37° C. Bacteria were then washed by using RPMI 1640 Media and BMDMs were left in cell culture medium containing gentamicin (100 μg/ml). After 1 h and 24 h BMDMs were washed to remove gentamicin and intracellular bacteria were harvested by lysing BMDMs in RPMI media containing 0.2% Triton X 100. Bacterial CFUs were enumerated by plating onto LB agar. Bacterial counts at 1 h indicated the degree of opsonization while those at 24 h served as a measure of microbicidal activity of macrophages. For these measurements, anti-MrkA antibody and K. pneumoniae antiserum were used at dilutions of 5 μg/mL each.

[4] = Isocratic point of PCCs (C18 prep-scale column elution); type: physicochemical
Excerpt: The efficacy of AR-PCCs in vivo will not only depend on target binding, but also pharmacokinetic (PK) properties, of which clearance pathway is an important parameter. […] Modifications include single- and double-residue substitutions, residue removal, and the addition of non-ionic PEG and charged poly-arginine tags (Ri, where i represents the number of arginine). Results of this optimization are shown in FIG. 4B, which plots IP versus the affinity of the compound to MrkA, relative to cy(LLFFF) (SEQ ID NO:5).
PCC compounds were purified on a Waters Autopurification system, which isolated compounds based on MS peaks corresponding to protonated [M+1H]^+ and [M+2H]^2+, and/or sodium adducts [M+Na]^+ and [M+2Na]^2+. The isocratic points of PCCs were determined based on the elution of the compound from a C18 prep-scale column. Synthetic epitopes were either purified on the Waters Autopurification System, or by semi-preparative HPLC and then using matrix-assisted laser desorption/ionization mass spectroscopy to identify fractions with the desired m/z ratio. The resulting peptides were lyophilized, the yield determined by mass difference or UV-visible absorbance, and resuspended at a concentration of up to 10 mM peptide in DMSO. Peptides were stored at −80° C. before thawing for each use.

[5] = strain BAA 1705, PCC 5 μM or lower

T1 sequence (P12267 23-202): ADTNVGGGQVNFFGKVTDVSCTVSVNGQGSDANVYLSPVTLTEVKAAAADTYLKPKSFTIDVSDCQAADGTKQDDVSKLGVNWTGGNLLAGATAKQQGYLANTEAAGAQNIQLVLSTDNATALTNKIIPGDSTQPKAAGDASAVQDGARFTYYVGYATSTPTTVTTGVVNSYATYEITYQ

## cy(LLAFF): alanine-substituted cy(LLFFF) analogue ([Lys(N3)]LLAFFX; triazole 1-7; not fully specified (residue 7); printed as cy(LLAFF))
[1]
  binding / affinity to full-length MrkA protein (ELISA signal): Modestly lower binding

## cy(LLFFA): control compound differing from cy(LLFFF) by a single phenyl moiety ([Lys(N3)]LLFFA[Pra]; triazole 1-7)
[2]; MrkA/B/C knockout KPPR1
  whole-cell ELISA signal, MrkA-knockout KPPR1: ELISA intensities comparable to baseline
[2]; strain BAA 1705, 50 μM PCC
  whole-cell ELISA signal at high PCC concentration, LB or G-CAA: strong and comparable ELISA signals
[2]; [5]
  whole-cell ELISA 450 nm absorbance, cells cultured in G-CAA (high MrkA): near-baseline absorbances
  whole-cell ELISA 450 nm absorbance, cells cultured in LB (low MrkA): near-baseline absorbances
[2]; wild type KPPR1 (ATCC 43816), G-CAA media, 5 μM down to 5 nM
  whole-cell ELISA signal, wild type KPPR1: much lower intensities; also recorded: Much lower binding

## cy(LAFFF): alanine-substituted cy(LLFFF) analogue ([Lys(N3)]LAFFFX; triazole 1-7; not fully specified (residue 7); printed as cy(LAFFF))
[1]
  binding / affinity to full-length MrkA protein (ELISA signal): Modestly lower binding

## cy(GVHRL): additional MrkA ligand with lower affinity (XGVHRL[Lys(N3)]; triazole 1-7; not fully specified (residue 1); printed as cy(GVHRL))
[1]
  affinities to MrkA (likely): ~1 µM
  binding / affinity to full-length MrkA protein (ELISA signal): lower affinities to MrkA

## cy(LLFFA)-DNP: DNP-conjugated control cy(LLFFA) ([Lys(N3)]LLFFAX; triazole 1-7; not fully specified (residue 7); printed as cy(LLFFA); also: DNP label)
[3]
  phagocytosis / OPK activity at 1 h, AR-PCC plus anti-DNP: None of these treatments elicited phagocytosis above basal levels
  phagocytosis at 1 h, AR-PCC only (no anti-DNP): None of these treatments elicited phagocytosis above basal levels

## Ref. compound (LLFFF; not fully specified (bridges); printed as cy(LLFFF); also: cyclised (cy), ring-closing ends (Pra and azidolysine) not shown in this chain)
[4]; N-terminal tag Bio-Peg10-peg10-
  Isocratic point (%): 74.53%
[4]; N-terminal tag Bio-peg5-
  Isocratic point (%): 78.85%
[4]; N-terminal tag Bio-peg10-
  Isocratic point (%): 75.88%
[1]; ELISA 1, [MrkA] for ELISA N/A
  Relative affinity (ratio of ELISA signal versus cy(LLFFF)): 1.00
[1]; [MrkA] for ELISA 25 nM (ELISA 2, 5, 6)
  Relative affinity (ratio of ELISA signal versus cy(LLFFF)): 1.00
[1]; [MrkA] for ELISA 50 nM (ELISA 3)
  Relative affinity (ratio of ELISA signal versus cy(LLFFF)): 1.00
[1]; [MrkA] for ELISA 100 nM (ELISA 4)
  Relative affinity (ratio of ELISA signal versus cy(LLFFF)): 1.00

## cy(ALFFF): alanine-substituted cy(LLFFF) analogue ([Lys(N3)]ALFFFX; triazole 1-7; not fully specified (residue 7); printed as cy(ALFFF))
[1]
  binding / affinity to full-length MrkA protein (ELISA signal): Modestly lower binding

## cy(YRHLG): additional MrkA ligand with lower affinity (XYRHLG[Lys(N3)]; bridge 1-7; not fully specified (residue 1, bridges); printed as cy(YRHLG))
[1]
  affinities to MrkA (likely): ~1 µM
  binding / affinity to full-length MrkA protein (ELISA signal): lower affinities to MrkA

## cy(TTFFF): additional MrkA ligand with lower affinity ([Lys(N3)]TTFFFX; bridge 1-7; not fully specified (residue 7, bridges); printed as cy(TTFFF))
[1]
  affinities to MrkA (likely): ~1 µM
  binding / affinity to full-length MrkA protein (ELISA signal): lower affinities to MrkA

## cy(LLFFF)+R6-DNP: optimized compound cy(LLFFF)+R6 tagged with DNP ([Lys(N3)]LLFFF[Pra]RRRRRR; bridge 1-7; not fully specified (bridges); also: tagged with DNP, position not given here)
[3]
  phagocytosis / OPK activity at 1 h, AR-PCC plus anti-DNP: comparable to that of cy(LLFFF)-DNP
  phagocytosis at 1 h, AR-PCC only (no anti-DNP): None of these treatments elicited phagocytosis above basal levels
[3]; murine BMDMs
  colony counts at 1 h, AR-PCC plus anti-DNP antibody: 85,000 CFU

Source: patent US12209142B2, “SARS-CoV-2 epitope-targeted peptide immunostimulants” (Institute for Systems Biology, priority 2020, dated 2025)
